Molecular target: recombinant stabilised complete spike protein (SARS-CoV-2), pre-fusion (SARS-CoV-2) (UniProt P0DTC2)
Test: affinity purification with mass spectrometry

human serum albumin (from UniProt P02768 25-609) (natural protein)
mean MALDI-ToF peak intensity of HSA eluted from the beads: 1920 AU
